Test results reported in patent publication US20070077597A1 (published 2007).
Each block holds one binder with its values, some of them ahead of it.

Tests used:
[1] = target: LacI fusion clone 18 (Gt library) (E. coli, UniProt P03023 1-360); experiment: panning, LacI Gt library on immobilized ROS membranes
Description: (§1) For screening of the library by “panning,” rhodopsin receptors prepared according to Example 5 were immobilized directly on Immulon 4 (Dynatech) microtiter wells (0.1-1 μg of protein per well) in cold 35 mM HEPES, pH 7.5, containing 0.1 mM EDTA, 50 mM KCl and 1 mM dithiothreitol (HEK/DTT). After shaking for one hour at 4° C., unbound membrane fragments were washed away with HEK/DTT. The wells were blocked with 100 μl 2% BSA in HEKL (35 mM HEPES; 0.1 mM EDTA; 50 mM KCl; 0.2 M α-lactose; pH 7.5, with 1 mM DTT). For rounds 1 and 2, BSA was used for blocking; in later rounds 1% nonfat dry milk was used. For the first round of panning, about 24 wells of a 96-well plate were used. In subsequent rounds, 8 wells with receptor and 8 wells without receptor were prepared.
(§2) The Gt library was thawed (2 mL aliquot) and mixed with 6 mL lysis buffer on ice. Lysis buffer contains 4.25 mL HE (25 mM HEPES: 0.1 mM EDTA; pH 7.5); 1 mL 50% glycerol; 750 μL 10 mg/mL protease-free BSA in HE; 10 μL 0.5 M DTT; and 6.25 μL 0.2 M PMSF. Freshly prepared lysozyme solution (150 μL 10 mg/mL lysozyme in cold HE) was added and the tube was gently inverted several times and incubated on ice for no more than two minutes. The extent of lysis is evidenced by an increase in viscosity that can be observed by noting the slow migration of bubbles to the top of the tube after mixing. Lysis was terminated by mixing in 2 mL 20% lactose and 250 μL 2M KCl. The tube was centrifuged immediately at 13,000×g for 15 minutes at 4° C. and the supernatant transferred to a new tube. A small aliquot of 0.1% (the PRE sample) was saved in a separate, labeled tube. […] Immediately thereafter, the crude bacterial lysate from the peptide library (200 μL) was added to each well and allowed to shake gently for one hour at 4° C. For round 2, this same procedure was followed. In round 3, the amount of lysate used was reduced to 100 μL. In subsequent rounds, the lysate was diluted 1:10 in HEKL/BSA.

[2] = target: LacI fusion clone 23 (Gt library) (E. coli, UniProt P03023 1-360); experiment: as above
Description: as §1, §2

[3] = target: LacI fusion clone 24 (Gt library) (E. coli, UniProt P03023 1-360); experiment: as above
Description: as §1, §2

[4] = target: LacI fusion clone 3 (Gt library, light-activated rhodopsin screen) (E. coli, UniProt P03023 1-360); experiment: as above
Description: as §1, §2

[5] = target: LacI fusion clone 4 (Gt library) (E. coli, UniProt P03023 1-360); experiment: as above
Description: as §1, §2

[6] = target: LacI fusion clone 6 (Gt library) (E. coli, UniProt P03023 1-360); experiment: as above
Description: as §1, §2

[7] = target: LacI fusion clone 11 (Gt library) (E. coli, UniProt P03023 1-360); experiment: as above
Description: as §1, §2

[8] = target: T1, LacI fusion clone 13 (Gt library), … (E. coli, UniProt P03023 1-360); experiment: as above
T1 construct: also called L20
Description: as §1, §2

[9] = target: LacI fusion clone 14 (Gt library) (E. coli, UniProt P03023 1-360); experiment: as above
Description: as §1, §2

[10] = target: LacI fusion clone 15/28 (Gt library) (E. coli, UniProt P03023 1-360); experiment: as above
Description: as §1, §2

[11] = target: LacI fusion clone 16 (Gt library) (E. coli, UniProt P03023 1-360); experiment: as above
Description: as §1, §2

[12] = target: LacI fusion clone 17 (Gt library, light-activated rhodopsin screen) (E. coli, UniProt P03023 1-360); experiment: as above
Description: as §1, §2

[13] = target: LacI fusion clone 19 (Gt library) (E. coli, UniProt P03023 1-360); experiment: as above
Description: as §1, §2

[14] = target: LacI fusion clone 26 (Gt library, light-activated rhodopsin screen) (E. coli, UniProt P03023 1-360); experiment: as above
Description: as §1, §2

[15] = target: LacI fusion clone 27 (Gt library) (E. coli, UniProt P03023 1-360); experiment: as above
Description: as §1, §2

[16] = target: T2, LacI fusion clone 8 (Gt library) (E. coli, UniProt P03023 1-360); experiment: as above
T2 construct: also called Peptide 8; HAP
Description: as §1, §2

[17] = target: LacI fusion clone 2 (Gt library, dark-adapted rhodopsin screen) (E. coli, UniProt P03023 1-360); experiment: panning, LacI Gt library on immobilized ROS membranes kept in the dark
[18] = target: LacI fusion clone 3 (Gt library, dark-adapted rhodopsin screen) (E. coli, UniProt P03023 1-360); experiment: as above
[19] = target: LacI fusion clone 7 (Gt library, dark-adapted rhodopsin screen) (E. coli, UniProt P03023 1-360); experiment: as above
[20] = target: LacI fusion clone 17 (Gt library, dark-adapted rhodopsin screen) (E. coli, UniProt P03023 1-360); experiment: as above
[21] = target: LacI fusion clone 21 (Gt library, dark-adapted rhodopsin screen) (E. coli, UniProt P03023 1-360); experiment: as above
[22] = target: LacI fusion clone 26 (Gt library, dark-adapted rhodopsin screen) (E. coli, UniProt P03023 1-360); experiment: as above
[23] = target: LacI fusion clone 33/37 (Gt library, dark-adapted rhodopsin screen) (E. coli, UniProt P03023 1-360); experiment: as above
[24] = target: LacI fusion clone 41 (Gt library, dark-adapted rhodopsin screen) (E. coli, UniProt P03023 1-360); experiment: as above

binding result [1]: binds
binding result [2]: binds
binding result [3]: binds
binding result [4]: binds
binding result [5]: binds
binding result [6]: binds
binding result [7]: binds
binding result [8]: binds
binding result [9]: binds
binding result [10]: binds
binding result [11]: binds
binding result [12]: binds
binding result [13]: binds
binding result [14]: binds
binding result [15]: binds
binding result [16]: binds
B1: light-activated bovine rhodopsin (metarhodopsin II) in rod outer segment membranes (receptor, UniProt P02699 1-348, looked up)
chain: MNGTEGPNFYVPFSNKTGVVRSPFEAPQYYLAEPWQFSMLAAYMFLLIMLGFPINFLTLYVTVQHKKLRTPLNYILLNLAVADLFMVFGGFTTTLYTSLHGYFVFGPTGCNLEGFFATLGGEIALWSLVVLAIERYVVVCKPMSNFRFGENHAIMGVAFTWVMALACAAPPLVGWSRYIPEGMQCSCGIDYYTPHEETNNESFVIYMFVVHFIIPLIVIFFCYGQLVFTVKEAAAQQQESATTQKAEKEVTRMVIIMVIAFLICWLPYAGVAFYIFTHQGSDFGPIFMTIPAFFAKTSAVYNPVIYIMMNKQFRNCMVTTLCCGKNPLGDDEASTTVSKTETSQVAPA
modifications: retinylidene chromophore on Lys-296 (all-trans after light)
notes: whole, on cells; also called MII

binding result [17]: binds
binding result [18]: binds
binding result [19]: binds
binding result [20]: binds
binding result [21]: binds
binding result [22]: binds
binding result [23]: binds
binding result [24]: binds
B2: dark-adapted bovine rhodopsin in rod outer segment membranes (receptor, UniProt P02699 1-348, looked up)
chain: B1 chain
modifications: 11-cis retinylidene chromophore on Lys-296
notes: whole, on cells; same protein as m1, left in the dark
